These results are taken from article doi:10.1101/2020.04.08.026906.

The target in this test is C3b (UniProt P01024). Briefly: SPR.
Chain of UniProt P01024 (P01024 whole entry, looked up): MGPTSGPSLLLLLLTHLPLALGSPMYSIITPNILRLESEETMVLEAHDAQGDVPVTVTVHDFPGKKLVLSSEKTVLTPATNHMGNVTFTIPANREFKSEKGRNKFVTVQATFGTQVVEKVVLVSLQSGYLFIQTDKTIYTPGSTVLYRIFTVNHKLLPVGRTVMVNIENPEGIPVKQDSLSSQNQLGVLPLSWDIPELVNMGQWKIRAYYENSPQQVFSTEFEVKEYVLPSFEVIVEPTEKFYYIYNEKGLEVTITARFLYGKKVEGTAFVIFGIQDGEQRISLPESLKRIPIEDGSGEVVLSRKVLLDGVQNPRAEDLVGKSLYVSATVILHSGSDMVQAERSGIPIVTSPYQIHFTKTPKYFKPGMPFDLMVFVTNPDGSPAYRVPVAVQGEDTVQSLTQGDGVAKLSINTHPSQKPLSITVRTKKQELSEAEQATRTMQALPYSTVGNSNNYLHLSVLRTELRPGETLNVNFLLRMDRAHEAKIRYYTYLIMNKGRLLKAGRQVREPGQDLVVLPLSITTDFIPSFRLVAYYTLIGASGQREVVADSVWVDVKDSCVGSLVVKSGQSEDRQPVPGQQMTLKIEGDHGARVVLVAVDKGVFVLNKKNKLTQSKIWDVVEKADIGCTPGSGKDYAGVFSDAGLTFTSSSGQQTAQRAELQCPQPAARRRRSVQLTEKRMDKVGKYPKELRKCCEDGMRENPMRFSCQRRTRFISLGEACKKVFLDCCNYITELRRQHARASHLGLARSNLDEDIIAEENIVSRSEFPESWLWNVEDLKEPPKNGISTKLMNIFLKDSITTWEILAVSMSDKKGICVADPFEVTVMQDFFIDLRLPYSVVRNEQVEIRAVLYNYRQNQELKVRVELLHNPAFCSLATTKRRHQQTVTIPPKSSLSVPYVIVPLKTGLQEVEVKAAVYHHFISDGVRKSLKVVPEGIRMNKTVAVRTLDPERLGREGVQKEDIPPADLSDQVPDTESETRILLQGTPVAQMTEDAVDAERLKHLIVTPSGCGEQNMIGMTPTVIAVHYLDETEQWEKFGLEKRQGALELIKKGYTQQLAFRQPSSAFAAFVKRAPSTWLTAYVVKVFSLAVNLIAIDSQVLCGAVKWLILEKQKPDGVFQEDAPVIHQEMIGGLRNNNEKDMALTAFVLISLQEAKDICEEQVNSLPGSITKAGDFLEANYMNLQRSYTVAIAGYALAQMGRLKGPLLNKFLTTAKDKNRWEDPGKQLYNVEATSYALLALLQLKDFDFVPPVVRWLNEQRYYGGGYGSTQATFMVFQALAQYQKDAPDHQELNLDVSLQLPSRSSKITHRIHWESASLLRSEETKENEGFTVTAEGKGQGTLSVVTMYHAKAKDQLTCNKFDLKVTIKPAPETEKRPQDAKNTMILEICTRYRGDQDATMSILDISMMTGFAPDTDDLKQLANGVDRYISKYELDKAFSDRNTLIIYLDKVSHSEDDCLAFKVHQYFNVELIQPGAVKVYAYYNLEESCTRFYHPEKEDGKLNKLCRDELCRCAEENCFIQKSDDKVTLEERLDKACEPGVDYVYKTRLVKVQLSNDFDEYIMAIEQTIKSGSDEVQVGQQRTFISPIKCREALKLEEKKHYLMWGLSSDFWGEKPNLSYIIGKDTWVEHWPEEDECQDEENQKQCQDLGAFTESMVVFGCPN

“plasma derived Factor H (from UniProt P08603 19-1231) (natural protein)” showed a KD with anti-FH.07.1 Fab' fragments of 1.9 µM and a Kd of 6 µM.

For orientation: Kd means the constant that tells how readily two partners part at equilibrium. High values mean a looser complex, low ones a tighter complex.
